Measurements published in patent US20250043319A1, “BIOSYNTHESIS OF CYCLOLAVANDULYL DERIVATIVES OF AROMATIC COMPOUNDS” (Invizyne Technologies, Inc., priority 2022, published 2025).

B1: AtaWTPT: prenyltransferase, Accession: AMB20850.1, SEQ ID NO: 17 (protein, listed as Aspergillus terreus)
chain: MLPPSDSKDPRPWQILSQALGFPNYDQELWWQNTAETLNRVLEQCDYSVHLQYKYLAFYHKYILPSLGPFRRPGVEPEYISGLSHGGHPLEISVKIDKSKTICRLGLQAIGPLAGTARDPLNSFGDRELLKNLATLLPHVDLRLFDHFNAQVGLDRAQCAVATTKLIKESHNIVCTSLDLKDGEVIPKVYFSTIPKGLVTETPLFDLTFAAIEQMEVYHKDAPLRTALSSLKDFLRPRVPTDASITPPLTGLIGVDCIDPMLSRLKVYLATFRMDLSLIRDYWTLGGLLTDAGTMKGLEMVETLAKTLKLGDEACETLDAERLPFGINYAMKPGTAELAPPQIYFPLLGINDGFIADALVEFFQYMGWEDQANRYKDELKAKFPNVDISQTKNVHRWLGVAYSETKGPSMNIYYDVVAGNVARV
B2: AbPT: prenyltransferase, Accession: KPI30840.1, SEQ ID NO: 9 (protein, listed as Actinomyces sp.)
chain: MSGKANIQRVYSAVEEAADLLDIACSREQMWPTLTAFEDVLTDGAIVFNMVTSGGRIGDLSFDFTLPPSAGDPYELALAHGLVDETDHPVRALFSDIQARFPLQAYGVDHGITSGFHKTYAFFPLGDLQSVAELADIPSMPSGLSEHVTSFAAYGLDDKVSAIAIDYARRTWNVYFNGLSAPHVQRTAVLSMLSEFGLPEPSAQLLEFIETSSALYPTFGWDSSKIERISFSTRTTDPVALPARIEPKLEKFARSAPHVYEGERVLVYAGALSPSEEYYKLATYYQMTAAAHDRVRSAN
B3: NphBM31s: engineered soluble variant of prenyltransferase NphB from Streptomyces sp. CL190, SEQ ID NO: 6 (protein)
chain: MSEAADVERVYAAIEEAAGLLGVACARDKIWPLLSTFQDTLVEGGSVVVFSMASGRHSTELDFSISVPPSHGDPYAIVVEKGLFPATGHPVDDLLADIQKHLPVSMFAIDGEVTGGFKKTYAFFPTDNMPGVAELAAIPSMPPAVAENAELFARYGLDKVQMTSMDYKKRQVNLYFSELSAQTLEAESVLALVRELGLHVPNELGLKFCKRSFSVYPTLNWDTSKIDRLCFSVISTDPTLVPSSDEGDIEKFHNYATKAPYAYVGEKRTLVYGLTLSPKEEYYKLGAVYHITDVQRKLLKAFDSLED
modifications: Synthetic polymer
B4: NphB: naturally occurring prenyltransferase from Streptomyces sp. CL190, Accession: 1ZB6_A, SEQ ID NO: 8 (protein, listed as Streptomyces sp.)
chain: MSEAADVERVYAAMEEAAGLLGVACARDKIYPLLSTFQDTLVEGGSVVVFSMASGRHSTELDFSISVPTSHGDPYATVVEKGLFPATGHPVDDLLADTQKHLPVSMFAIDGEVTGGFKKTYAFFPTDNMPGVAELSAIPSMPPAVAENAELFARYGLDKVQMTSMDYKKRQVNLYFSELSAQTLEAESVLALVRELGLHVPNELGLKFCKRSFSVYPTLNWETGKIDRLCFAVISNDPTLVPSSDEGDIEKFHNYATKAPYAYVGEKRTLVYGLTLSPKEEYYKLGAYYHITDVQRGLLKAFDSLED
B5: NapT9: prenyltransferase, Accession: ABS50490.1, SEQ ID NO: 14 (protein, listed as Streptomyces sp.)
chain: MSGATGAEKLYSAIEESARMVDAPFSRDKVWPTLSAFEGGFSDAGGVILSLQAGTHVPEMEYSAQVSPGISDPYARALASGILTETDHPVSTVLAEIVSLAPTSEHYIDCGIVGGFKKIYANFPHDQQTVAALAGLPSMPRAVGGNAEFFARHGLDRVALIGVDYVNKTINLYFQVSAATAGNLDQKTVSAMLHETGMSEPSDAMVAYACQAYRIYTTLSWDAQEILRIAFAPKPRRGIDPADLPARLEPRIEKFLRATPHKYPGALINATAAKWSPEREVLDLAAHYQVSAVQMKAIEAEEGQAS
B6: MzPT1: prenyltransferase, Accession: WP_135330628.1, SEQ ID NO: 18 (protein, listed as Streptomyces sp.)
chain: MSRTAEVERVYSAIEEAAGLLSAVCSRDNVWPVLDAFGDELAEAMIVFGGQAGDRHAGELDYSFTVPSSIGNPYPHALSRGLVTETDHPVGSVLSDIQGRWPIKEHFVDAGVVGGFKKLYAHFPDNMQKVSDIADIPSMPRAVAENAALFARYGLDQVAMIGVDYRHKTVSVYFHFGPDGRPEPSTIRALLSDLGMPEPDEPTLEFAHKSLRVNITLGWETGDVIRVAFAPPPVRGLDPSALPGQLTPRMEEFARVSPRAYAGGRVNMYAVKWMRGEEFHEVCTYYQLTPWYEKILTDAPKEQQG

Experiments:
Assay type in all cases: biochemical
[1] = cell-free cyclolavandulylation activity screening of prenyltransferases, summary over all tested substrates; conditions: any of the tested substrates; cell-free biosynthesis reaction with CLDS from Streptomyces sp. CL190 and DMAPP
Text: (§1) Genes encoding the following prenyltransferases were codon-optimized, synthesized, and cloned into the pET28a vector for protein expression and isolation/purification as described in Example 1. • NphB (Accession: 1ZB6_A) (SEQ ID NO: 8) • AbPT (Accession: KPI30840.1) (SEQ ID NO: 9) • SkPT (Accession: Q2L6E3.1) (SEQ ID NO: 10) • SvPT (Accession: WP_078899560.1) (SEQ ID NO: 11) • Sr1310PT (Accession: WP_057602682.1) (SEQ ID NO: 12) • NapT8 (Accession: ABS50461.1) (SEQ ID NO: 13) • NapT9 (Accession: ABS50490.1) (SEQ ID NO: 14) • Mcl23PT (Accession: AGH68908.1) (SEQ ID NO: 15) • CnqP3PT (Accession: WP_047018069.1) (SEQ ID NO: 16) • AtaWTPT (Accession: AMB20850.1) (SEQ ID NO: 17) • MzPT1 (Accession: WP_135330628.1) (SEQ ID NO: 18) • MzPT2 (Accession: WP_135330626.1) (SEQ ID NO: 19) B. Cell-Free Biosynthesis Reaction with CLPP and Various Aromatic Substrates
(§2) The cyclolavandulyl diphosphate synthase, CLDS was prepared as described in Example 1 and used in the synthesis of CLPP.
(§3) Stocks of the various aromatic compounds used as substrates for cyclolavandulylation activity screening were obtained from the following commercial sources: • Resveratrol (Fisher Scientific) 200 mM stock in DMSO • Luteolin (Fisher Scientific) 200 mM stock in DMSO • Naringenin (Fisher Scientific) 200 mM stock in DMSO • Tryptamine (Fisher Scientific) 200 mM stock in DMSO • Tryptophan (Fisher Scientific) 40 mM stock in water • Olivetolic acid (Toronto Research Chemicals) 200 mM stock in DMSO • Divarinic acid (Toronto Research Chemicals) 200 mM stock in DMSO • Phorolic acid (prepared in house) 200 mM stock in DMSO • Olivetol (Fisher Scientific) 200 mM stock in DMSO • Screening for cell-free biosynthesis was carried out as follows. 10 mM DMAPP, 5 mM MgCl2, 100 mM Tris-HCl (pH=8), and 4 mg/mL CLDS (SEQ ID NO: 4) were combined in a 6.80 mL reaction, which was incubated at 28° C. for 48 hours. This mixture was aliquoted into a 96-well plate (80 μL per well). The various prenyltransferases (18 μL, ˜1 g/L final concentration) listed above were screened across various substrates (2 μL of stock solution, variable concentration shown above), which were added to the wells and incubated at 28° C. for an additional 48 hours.
(§4) Analysis of the reaction mixture was carried out as follows: 50 μL of the reaction mixture were added to 1 mL MeOH. The resulting solution was vortexed, centrifuged at 17,200 g for 5 minutes, and transferred to an HPLC vial for analysis. HRMS-QTOF analyses of the cell free reactions was performed on an Agilent Technologies 6545 Accurate Mass QTOF LC/MS with a reverse-phase column (Agilent Infinity Lab Poroshell 120 ECC18, 2.7 μm, 3.0×50 mm) using positive ESI with 1% MeCN—H2O (0.1% FA) for 2 min followed by a linear gradient of 1-99% MeCN—H2O (0.1% FA) for 14 min with a flow rate of 0.4 mL/min.
(§5) Mass spectrometric (MS) analysis of chromatograms was carried out using MassHunter Qualitative Analysis 10.0. Targeted metabolomics using the exact m/z of the calculated proton adduct [H^+] in the presence and absence of prenyltransferase indicated the presence of cyclolavandulylated product.

[2] = cell-free cyclolavandulylation activity screening of prenyltransferases, substrate olivetolic acid; conditions: cell-free reaction with CLDS and DMAPP (CLPP donor), 28° C., 48 hours, QTOF LC/MS, with vs without prenyltransferase
Text: as §1, §2, §3, §4, §5

[3] = cell-free cyclolavandulylation activity screening of prenyltransferases, substrate naringenin; conditions: cell-free reaction with CLDS and DMAPP (CLPP donor), 28° C., 48 hours, QTOF LC/MS, with vs without prenyltransferase
Text: as §1, §2, §3, §4, §5

[4] = cell-free cyclolavandulylation activity screening of prenyltransferases, substrate luteolin; conditions: cell-free reaction with CLDS and DMAPP (CLPP donor), 28° C., 48 hours, QTOF LC/MS, with vs without prenyltransferase
Text: as §1, §2, §3, §4, §5

[5] = cell-free cyclolavandulylation activity screening of prenyltransferases, substrate tryptamine; conditions: cell-free reaction with CLDS and DMAPP (CLPP donor), 28° C., 48 hours, QTOF LC/MS, with vs without prenyltransferase
Text: as §1, §2, §3, §4, §5

[6] = cell-free cyclolavandulylation activity screening of prenyltransferases, substrate tryptophan; conditions: cell-free reaction with CLDS and DMAPP (CLPP donor), 28° C., 48 hours, QTOF LC/MS, with vs without prenyltransferase
Text: as §1, §2, §3, §4, §5

[7] = cell-free cyclolavandulylation activity screening of prenyltransferases, substrate resveratrol; conditions: cell-free reaction with CLDS and DMAPP (CLPP donor), 28° C., 48 hours, QTOF LC/MS, with vs without prenyltransferase
Text: as §1, §2, §3, §4, §5

[8] = cell-free cyclolavandulylation activity screening of prenyltransferases, substrate olivetol; conditions: cell-free reaction with CLDS and DMAPP (CLPP donor), 28° C., 48 hours, QTOF LC/MS, with vs without prenyltransferase
Text: as §1
(§6) The cyclolavandulyl diphosphate synthase, CLDS was prepared as described in Example 1 and used in the synthesis of CLPP. […]
as §5

[9] = cell-free cyclolavandulylation activity screening of prenyltransferases, substrate divarinic acid; conditions: cell-free reaction with CLDS and DMAPP (CLPP donor), 28° C., 48 hours, QTOF LC/MS, with vs without prenyltransferase
Text: as §1, §6, §5

[10] = cell-free cyclolavandulylation activity screening of prenyltransferases, substrate phorolic acid; conditions: cell-free reaction with CLDS and DMAPP (CLPP donor), 28° C., 48 hours, QTOF LC/MS, with vs without prenyltransferase
Text: as §1, §6, §5

| Molecule | cyclolavandulylation activity with tested aromatic compounds (summary of Table 7) [1] | presence of cyclolavandulylated product, Aromatic Compound (Substrate) Olivetolic Acid [2] | presence of cyclolavandulylated product, Aromatic Compound (Substrate) Naringenin [3] | presence of cyclolavandulylated product, Aromatic Compound (Substrate) Luteolin [4] | presence of cyclolavandulylated product, Aromatic Compound (Substrate) Tryptamine [5] | presence of cyclolavandulylated product, Aromatic Compound (Substrate) Tryptophan [6] | presence of cyclolavandulylated product, Aromatic Compound (Substrate) Resveratrol [7] | presence of cyclolavandulylated product, Aromatic Compound (Substrate) Olivetol [8] | presence of cyclolavandulylated product, Aromatic Compound (Substrate) Divarinic Acid [9] | presence of cyclolavandulylated product, Aromatic Compound (Substrate) Phorolic Acid [10] |
| --- | --- | --- | --- | --- | --- | --- | --- | --- | --- | --- |
| B1 | produced a cyclolavandulylated aromatic compound | No | Yes | No | No | Yes | Yes | – | – | – |
| B2 | produced a cyclolavandulylated aromatic compound | No | No | No | No | Yes | No | – | – | – |
| B3 | produced a cyclolavandulylated aromatic compound | Yes | No | No | No | No | Yes | No | Yes | No |
| B4 | produced a cyclolavandulylated aromatic compound | No | Yes | No | No | Yes | No | – | – | – |
| B5 | produced a cyclolavandulylated aromatic compound | No | No | Yes | No | No | No | – | – | – |
| B6 | produced a cyclolavandulylated aromatic compound | Yes | No | No | No | No | No | – | – | – |
